Data published in patent publication US20040180405A1 (NEUROSEARCH A S, published 2004).

Key:
Test in all cases: cell-based or functional assay
[1] = target: T1, KCNQ3 potassium channel subunit (human, UniProt O43525 1-872)
T1 sequence (looked up): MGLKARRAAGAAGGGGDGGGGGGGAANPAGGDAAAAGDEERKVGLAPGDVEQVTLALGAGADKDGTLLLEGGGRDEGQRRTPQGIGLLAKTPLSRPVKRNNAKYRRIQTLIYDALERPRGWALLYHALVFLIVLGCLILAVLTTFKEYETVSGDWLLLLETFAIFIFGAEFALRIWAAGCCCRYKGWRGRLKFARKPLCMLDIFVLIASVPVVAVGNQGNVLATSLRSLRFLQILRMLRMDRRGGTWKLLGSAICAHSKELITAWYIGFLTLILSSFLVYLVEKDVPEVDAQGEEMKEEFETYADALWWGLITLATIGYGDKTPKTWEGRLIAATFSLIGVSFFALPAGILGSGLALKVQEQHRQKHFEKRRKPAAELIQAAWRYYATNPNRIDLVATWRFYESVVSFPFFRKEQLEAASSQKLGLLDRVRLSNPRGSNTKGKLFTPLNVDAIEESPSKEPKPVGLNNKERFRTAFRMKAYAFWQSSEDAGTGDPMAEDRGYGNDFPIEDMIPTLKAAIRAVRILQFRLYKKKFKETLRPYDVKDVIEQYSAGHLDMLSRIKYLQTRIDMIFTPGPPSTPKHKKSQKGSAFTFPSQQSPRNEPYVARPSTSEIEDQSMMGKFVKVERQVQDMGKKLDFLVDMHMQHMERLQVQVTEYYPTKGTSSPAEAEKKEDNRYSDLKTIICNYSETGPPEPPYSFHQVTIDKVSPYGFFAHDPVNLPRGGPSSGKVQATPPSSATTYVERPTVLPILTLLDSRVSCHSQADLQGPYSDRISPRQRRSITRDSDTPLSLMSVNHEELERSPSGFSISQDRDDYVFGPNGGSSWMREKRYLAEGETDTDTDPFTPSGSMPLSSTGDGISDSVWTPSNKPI

KCNQ3 (T323Y) mutant = target: T2, KCNQ3 (T323Y) mutant (human, UniProt O43525 1-872)
T2 sequence (looked up): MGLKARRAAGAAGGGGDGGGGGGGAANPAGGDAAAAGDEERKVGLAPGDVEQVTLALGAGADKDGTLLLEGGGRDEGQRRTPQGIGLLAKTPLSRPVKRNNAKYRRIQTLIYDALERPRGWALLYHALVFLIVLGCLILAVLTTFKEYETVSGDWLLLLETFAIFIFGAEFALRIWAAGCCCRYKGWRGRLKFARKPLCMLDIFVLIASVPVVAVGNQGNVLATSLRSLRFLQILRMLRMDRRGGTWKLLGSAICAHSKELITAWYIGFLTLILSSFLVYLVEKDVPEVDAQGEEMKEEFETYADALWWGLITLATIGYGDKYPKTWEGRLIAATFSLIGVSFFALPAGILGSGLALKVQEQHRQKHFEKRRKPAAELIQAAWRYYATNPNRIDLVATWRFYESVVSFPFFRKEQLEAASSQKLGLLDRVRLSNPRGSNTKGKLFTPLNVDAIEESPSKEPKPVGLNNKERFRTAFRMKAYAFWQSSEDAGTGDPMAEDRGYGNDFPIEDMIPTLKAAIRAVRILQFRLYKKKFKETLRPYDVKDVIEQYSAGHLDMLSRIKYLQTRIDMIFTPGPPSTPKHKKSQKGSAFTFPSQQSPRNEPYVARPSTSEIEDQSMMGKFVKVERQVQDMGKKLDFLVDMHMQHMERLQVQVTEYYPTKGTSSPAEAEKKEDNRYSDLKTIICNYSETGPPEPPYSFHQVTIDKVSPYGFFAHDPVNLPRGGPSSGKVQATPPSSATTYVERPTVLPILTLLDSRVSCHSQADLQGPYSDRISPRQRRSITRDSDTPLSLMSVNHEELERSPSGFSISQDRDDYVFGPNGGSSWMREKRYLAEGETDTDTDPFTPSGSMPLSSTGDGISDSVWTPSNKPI

[2] = target: T3, KCNQ3(G318S) dominant negative mutant (human, UniProt O43525 1-872)
T3 sequence (looked up): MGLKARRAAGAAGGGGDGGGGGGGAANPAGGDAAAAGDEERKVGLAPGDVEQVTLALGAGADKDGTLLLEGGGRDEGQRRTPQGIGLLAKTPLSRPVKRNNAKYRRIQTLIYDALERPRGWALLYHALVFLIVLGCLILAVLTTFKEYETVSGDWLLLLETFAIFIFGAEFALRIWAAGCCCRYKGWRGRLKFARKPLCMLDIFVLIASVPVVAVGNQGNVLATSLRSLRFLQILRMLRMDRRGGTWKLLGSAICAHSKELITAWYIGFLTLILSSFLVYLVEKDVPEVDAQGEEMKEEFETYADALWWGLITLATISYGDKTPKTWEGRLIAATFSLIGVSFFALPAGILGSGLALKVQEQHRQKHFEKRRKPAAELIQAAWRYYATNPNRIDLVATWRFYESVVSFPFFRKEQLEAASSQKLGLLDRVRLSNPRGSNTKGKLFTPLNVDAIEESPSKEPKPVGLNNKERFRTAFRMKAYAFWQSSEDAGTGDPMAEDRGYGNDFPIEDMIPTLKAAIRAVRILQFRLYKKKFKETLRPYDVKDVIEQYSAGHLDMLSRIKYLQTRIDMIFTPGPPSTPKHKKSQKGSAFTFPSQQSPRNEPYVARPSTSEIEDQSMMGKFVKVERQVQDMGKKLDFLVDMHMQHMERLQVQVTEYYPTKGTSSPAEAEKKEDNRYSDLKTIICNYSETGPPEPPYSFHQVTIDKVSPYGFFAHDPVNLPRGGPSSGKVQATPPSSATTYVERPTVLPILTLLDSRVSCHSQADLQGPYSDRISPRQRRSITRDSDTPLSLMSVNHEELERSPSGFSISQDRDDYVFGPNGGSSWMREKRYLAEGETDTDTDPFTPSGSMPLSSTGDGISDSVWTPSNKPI

- IC50 of extracellular TEA (small molecule) on currents of co-expressed KCNQ5 and KCNQ3 (1:1); KCNQ5 homomers 71 mM [1]: ~200 mM
- IC50 of extracellular TEA (small molecule) on currents of KCNQ5 co-expressed with KCNQ3 (T323Y); KCNQ5 homomers 71 mM (KCNQ3 (T323Y) mutant): ~30 mM
- current relative to WT KCNQ5 currents on co-injection with the dominant negative mutant [2]: < 50%
B1: KCNQ5 potassium channel subunit (other)
chain: MKDVESGRGRVLLNSAAARGDGLLLLGTRAATLGGGGGGLRESRRGKQGARMSLLGKPLSYTSSQSCRRNVKYRRVQNYLYNVLERPRGWAFIYHAFVFLLVFGCLILSVFSTIPEHTKLASSCLLILEFVMIVVFGLEFIIRIWSAGCCCRYRGWQGRLRFARKPFCVIDTIVLIASIAVVSAKTQGNIFATSALRSLRFLQILRMVRMDRRGGTWKLLGSVVYAHSKELITAWYIGFLVLIFSSFLVYLVEKDANKEFSTYADALWWGTITLTTIGYGDKTPLTWLGRLLSAGFALLGISFFALPAGILGSGFALKVQEQHRQKHFEKRRNPAANLIQCVWRSYAADEKSVSIATWKPHLKALHTCSPTKKEQGEASSSQKLSFKERVRMASPRGQSIKSRQASVGDRRSPSTDITAEGSPTKVQKSWSFNDRTRFRPSLRLKSSQPKPVIDADTALGTDDVYDEKGCQCDVSVEDLTPPLKTVIRAIRIMKFHVAKRKFKETLRPYDVKDVIEQYSAGHLDMLCRIKSLQTRVDQILGKGQITSDKKSREKITAEHETTDDLSMLGRVVKVEKQVQSIESKLDCLLDIYQQVLRKGSASALALASFQIPPFECEQTSDYQSPVDSKDLSGSAQNSGCLSRSTSANISRGLQFILTPNEFSAQTFYALSPTMHSQATQVPISQSDGSAVAATNTIANQINTAPKPAAPTTLQIPPPLPAIKHLPRPETLHPNPAGLQESISDVTTCLVASKENVQVAQSNLTKDRSMRKSFDMGGETLLSVCPMVPKDLGKSLSVQNLIRSTEELNIQLSGSESSGSRGSQDFYPKWRESKLFITDEEVGPEETETDTFDAAPQPAREAAFASDSLRTGRSRSSQSICKAGESTDALSLPHVKLK
